How the values were obtained:
[1] = molecular target: T1, recombinant human CDH1 (R&D Systems 8505-EC-050) (human, UniProt P12830 155-707); experiment: western blot of recombinant purified protein
T1 construct: Bought protein; also called hCDH1; E-cadherin
T1 sequence (looked up): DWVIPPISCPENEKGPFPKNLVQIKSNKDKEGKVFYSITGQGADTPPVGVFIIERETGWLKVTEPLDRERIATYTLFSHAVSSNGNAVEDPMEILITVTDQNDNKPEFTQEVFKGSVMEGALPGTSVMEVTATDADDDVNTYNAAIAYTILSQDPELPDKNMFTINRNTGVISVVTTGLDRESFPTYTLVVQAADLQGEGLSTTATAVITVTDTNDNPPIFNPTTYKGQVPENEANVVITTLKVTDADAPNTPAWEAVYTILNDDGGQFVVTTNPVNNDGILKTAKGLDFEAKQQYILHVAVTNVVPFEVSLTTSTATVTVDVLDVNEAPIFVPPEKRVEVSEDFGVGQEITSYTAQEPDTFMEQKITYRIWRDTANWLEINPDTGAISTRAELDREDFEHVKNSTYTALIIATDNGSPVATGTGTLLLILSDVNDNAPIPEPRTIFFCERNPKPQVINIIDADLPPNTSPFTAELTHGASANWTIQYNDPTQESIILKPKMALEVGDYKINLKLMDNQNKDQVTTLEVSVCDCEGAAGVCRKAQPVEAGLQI
Protocol: (§1) Western blot analysis was performed on whole cell extracts prepared with RIPA buffer. Proteins were separated on 4-15% polyacrylamide gradient-SDS gels (Bio-Rad), and transferred onto nitrocellulose membrane (Invitrogen). Immunoblots were visualized with Enhanced Chemiluminescence (Perkin-Elmer). Primary antibodies were used against E-cadherin (1:5000; BDBiosciences Clone 36), N-cadherin (1:500; EBiosciences Clone 8C11) and GAPDH (1:2000; Millipore ABS16). 23C6 was also used as a primary antibody for western blot analysis (1:250). Recombinant protein obtained as follows: human CDH1 (R&D Systems 8505-EC-050), murine CDH1 (R&D Systems 8875-EC-050), human CDH2 (R&D Systems 1388NC050) and human CDH11 (Elabscience #PKSH032136).

[2] = molecular target: T2, recombinant murine CDH1 (R&D Systems 8875-EC-050) (murine, UniProt P09803 157-709); experiment: western blot of recombinant purified protein
T2 construct: Bought protein; also called mCDH1; recombinant murine E-cadherin protein
T2 sequence (looked up): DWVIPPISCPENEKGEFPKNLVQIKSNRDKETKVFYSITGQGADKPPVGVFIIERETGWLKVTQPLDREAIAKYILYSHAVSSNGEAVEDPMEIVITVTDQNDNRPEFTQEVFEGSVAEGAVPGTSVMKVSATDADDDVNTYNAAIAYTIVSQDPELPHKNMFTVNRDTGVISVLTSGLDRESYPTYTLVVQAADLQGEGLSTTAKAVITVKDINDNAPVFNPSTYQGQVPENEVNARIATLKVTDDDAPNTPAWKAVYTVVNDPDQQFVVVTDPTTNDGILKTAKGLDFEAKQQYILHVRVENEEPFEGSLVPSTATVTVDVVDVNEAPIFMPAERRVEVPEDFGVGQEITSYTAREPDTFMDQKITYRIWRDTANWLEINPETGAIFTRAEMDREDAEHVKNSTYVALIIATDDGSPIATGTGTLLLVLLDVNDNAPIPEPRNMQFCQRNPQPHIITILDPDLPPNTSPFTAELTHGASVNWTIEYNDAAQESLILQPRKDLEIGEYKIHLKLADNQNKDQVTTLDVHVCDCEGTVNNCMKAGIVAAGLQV
Protocol: as §1

[3] = molecular target: T3, CDH1 (E-cadherin) as expressed by PDAC9 cells (human, UniProt P12830 155-882); experiment: flow cytometry of fixed PDAC9 cells after siRNA knockdown
T3 construct: whole, on cells; On fixed cells in flow cytometry; In whole cell lysates in the western blot; PDAC9 is described as patient-derived and is used among the human xenograft models
T3 sequence (looked up): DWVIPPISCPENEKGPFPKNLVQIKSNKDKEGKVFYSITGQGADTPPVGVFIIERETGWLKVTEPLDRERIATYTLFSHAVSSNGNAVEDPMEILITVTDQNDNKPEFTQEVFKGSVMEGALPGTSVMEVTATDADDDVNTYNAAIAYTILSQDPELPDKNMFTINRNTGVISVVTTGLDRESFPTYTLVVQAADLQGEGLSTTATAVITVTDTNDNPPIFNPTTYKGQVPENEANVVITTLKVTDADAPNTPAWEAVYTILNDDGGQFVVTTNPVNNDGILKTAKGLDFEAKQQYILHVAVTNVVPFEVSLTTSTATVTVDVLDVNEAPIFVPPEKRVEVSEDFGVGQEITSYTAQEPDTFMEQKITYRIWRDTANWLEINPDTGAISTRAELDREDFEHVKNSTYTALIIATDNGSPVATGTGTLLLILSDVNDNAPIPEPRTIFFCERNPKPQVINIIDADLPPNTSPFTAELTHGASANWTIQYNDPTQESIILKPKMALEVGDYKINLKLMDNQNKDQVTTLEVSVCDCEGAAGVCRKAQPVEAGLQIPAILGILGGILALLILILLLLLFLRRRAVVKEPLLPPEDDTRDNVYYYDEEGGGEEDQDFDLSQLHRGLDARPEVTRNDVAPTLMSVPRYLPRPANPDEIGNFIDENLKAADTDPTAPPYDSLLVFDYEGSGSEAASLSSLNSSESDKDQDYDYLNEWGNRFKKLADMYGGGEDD
Protocol: Cell lines were routinely checked for mycoplasma (MycoAlert, Lonza), and were obtained from ATCC. […] PDAC9 were grown as previously described (Porter et al., Proc Natl Acad Sci USA, (2019)). Viability assays were performed at 48 hours after treatment with varying concentration of the 23C6 antibody or PBS control. Viability was determined using Cell Titer Glo reagent (Promega). Proliferation assays were performed by treating MDA-MB-231 cells with a single dose of 23C6 antibody or PBS control and timepoints as indicated, where the relative cell number was determined with the Cell TiterGlo reagent. For migration assays, the MDA-MB-231 cells were harvested with trypsin, and the cells suspended in serum free media. […] The cell suspensions were treated with 23C6 or control, and after 48 hours, the number of cells migrating through the membrane was determined by crystal violet staining and microscopic imaging with automated counting of individual cells using Image J. For siRNA knockdown, ONTARGETplus siRNA smartpools (Horizon Discovery) were obtained and transfected using Lipofectamine RNAiMax reagent (Invitrogen) and the cells harvested for analysis after 5 days. For flow cytometry, in brief the cells were fixed with 4% PFA, blocked with 5% BSA in PBS and incubated with the 23C6 antibody at 1:500 followed by anti-mouse IgG-AlexaFlour 555 and then analyzed on BD Fortessa machine.

[4] = molecular target: T4, CDH11 as expressed by human breast cancer cells (MDA-MB-231 and breast cancer CTC lines Brx-142, Brx-330, … (human, UniProt P55287 54-796)); experiment: western blot of whole cell extracts of MDA-MB-231 and CTC lines; shRNA knockdown as specificity control
T4 construct: whole, on cells; On cells in immunofluorescence and immunohistochemistry; In whole cell extracts (RIPA, SDS gel) in the western blots; also called Cadherin 11; OB-cadherin
T4 sequence (looked up): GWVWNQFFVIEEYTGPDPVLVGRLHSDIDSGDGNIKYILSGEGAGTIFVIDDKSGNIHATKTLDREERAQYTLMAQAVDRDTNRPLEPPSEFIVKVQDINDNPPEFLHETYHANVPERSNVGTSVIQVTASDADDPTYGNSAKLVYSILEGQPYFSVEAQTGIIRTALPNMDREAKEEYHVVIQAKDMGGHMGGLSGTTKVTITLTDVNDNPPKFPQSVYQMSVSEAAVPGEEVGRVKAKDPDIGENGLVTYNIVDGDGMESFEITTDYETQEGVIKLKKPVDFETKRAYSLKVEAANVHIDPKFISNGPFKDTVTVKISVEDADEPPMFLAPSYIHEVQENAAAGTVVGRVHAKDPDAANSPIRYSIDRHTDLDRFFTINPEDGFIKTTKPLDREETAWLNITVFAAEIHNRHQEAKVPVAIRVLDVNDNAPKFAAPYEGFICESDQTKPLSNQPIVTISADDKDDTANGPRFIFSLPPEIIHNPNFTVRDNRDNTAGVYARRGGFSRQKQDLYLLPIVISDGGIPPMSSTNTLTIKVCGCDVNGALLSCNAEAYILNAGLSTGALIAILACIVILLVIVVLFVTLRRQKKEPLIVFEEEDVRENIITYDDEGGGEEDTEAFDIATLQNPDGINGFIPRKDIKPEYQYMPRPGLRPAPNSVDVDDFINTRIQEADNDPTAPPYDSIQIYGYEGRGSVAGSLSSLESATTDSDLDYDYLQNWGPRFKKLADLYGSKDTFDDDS
Protocol: FIG. 1 is the RNA expression levels of cell adhesion molecules in the CTC lines Brx-82, Brx-142, Brx-394 AVG, Brx-189, Brx-390, Brx-121, Brx-292, Brx-319, Brx-250, Brx-140, or Brx-401 from breast cancer patients. The cell adhesion molecule CDH11 was expressed at the RNA level in multiple breast CTC cell lines (FIG. 1, black outline).
as §1

Measured: binding result

B1: anti-CDH11 monoclonal antibody clone 23C6 (antibody, V domains shown)
VH: EFQLQQSGPELVKPGASVKISCKASGYSFTDYNMNWVKQSNGKSLEWIGAINPNYGTTSYNQKFKGKATLTVDQSSSTAYMQLNSLTSEDSAVYYCTRLYYGSRYFDVWGTGTTVTVSS
VL: QIVVTQSPAIMSASLGERVTMTCTASSSVSSSYLHWYQQKPGSSPKLWIYSTSNLASGVPARFSGSGSGTSYSLTISSMEAEDVATYYCHQYHRSPPTFGGGAKLEIK
notes: also called 23C6 antibody; 23C6 anti-CDH11 antibody
binds: [1] | [2] | [3] | [4]

From patent publication US20240269310A1 (GENERAL HOSPITAL, published 2024)
